Test results reported in publication PMC9177846, “Targeting parvalbumin promotes M2 macrophage polarization and energy expenditure in mice” (Nature Communications, 2022).

Key:
[1] = target: T1, GFP-tagged CSF1R immunoprecipitated from HEK293T cells (UniProt P09581)
T1 sequence: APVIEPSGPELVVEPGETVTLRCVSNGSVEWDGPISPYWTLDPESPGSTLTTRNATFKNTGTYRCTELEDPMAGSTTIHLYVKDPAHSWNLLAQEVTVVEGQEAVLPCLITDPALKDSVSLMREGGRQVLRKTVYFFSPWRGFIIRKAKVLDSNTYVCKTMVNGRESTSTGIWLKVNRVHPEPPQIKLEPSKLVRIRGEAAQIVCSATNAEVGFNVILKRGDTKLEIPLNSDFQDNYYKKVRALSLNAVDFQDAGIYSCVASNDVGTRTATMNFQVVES

[2] = target: T2, GFP-tagged CSF1R immunoprecipitated from HEK293T cells (UniProt P09581 20-298); assay: cell-based or functional assay
T2 sequence: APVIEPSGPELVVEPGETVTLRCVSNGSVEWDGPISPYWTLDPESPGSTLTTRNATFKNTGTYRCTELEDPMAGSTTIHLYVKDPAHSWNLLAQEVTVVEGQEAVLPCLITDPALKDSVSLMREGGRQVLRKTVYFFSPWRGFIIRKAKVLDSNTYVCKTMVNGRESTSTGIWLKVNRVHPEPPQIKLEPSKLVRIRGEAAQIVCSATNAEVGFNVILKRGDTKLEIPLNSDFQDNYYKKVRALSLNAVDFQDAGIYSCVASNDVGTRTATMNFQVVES

[3] = target: T3, CSF1R protein immobilised for SPR (UniProt P09581 20-298); assay: SPR; Open SPR (Nicoya); CSF1R (30 µg/ml) covalently immobilised on COOH sensor chip by EDC/NHS; parvalbumin injected from low to high concentrations, 20 µl/min for 5 min; analysed with Trace Drawer; settings: both partners purified
T3 construct: CSF1R protein used at 30 µg/ml for covalent immobilisation
T3 sequence: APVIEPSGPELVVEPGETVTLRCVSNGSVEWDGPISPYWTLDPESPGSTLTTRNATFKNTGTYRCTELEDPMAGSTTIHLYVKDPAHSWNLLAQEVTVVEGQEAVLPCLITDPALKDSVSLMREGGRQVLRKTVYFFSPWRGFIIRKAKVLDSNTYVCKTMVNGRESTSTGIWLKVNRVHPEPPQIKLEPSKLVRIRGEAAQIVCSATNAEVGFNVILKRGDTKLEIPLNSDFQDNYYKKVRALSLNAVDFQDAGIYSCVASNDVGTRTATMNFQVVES

B1: Macrophage colony-stimulating factor (ligand)
chain: KEVSEHCSHMIGNGHLKVLQQLIDSQMETSCQIAFEFVDQEQLDDPVCYLKKAFFLVQDIIDETMRFKDNTPNANATERLQELSNNLNSCFTKDYEEQNKACVRTFHETPLQLLEKIKNFFNETKNLLEKDWNIFTKNCNNSFAKCSSRDVVTKPDCNCLYPKATPSSDPASASPHQPPAPSMAPLAGLAWDDSQRTEGSSLLPSELPLRIEDPGSAKQRPPRSTCQTLESTEQPNHGDRLTEDSQPHPSAGGPVPGVEDILESSLGTNWVLEEASGEASEGFLTQEAKFSPSTPVGGSIQAETDRPRALSASPFPKSTEDQKPVDITDRPLTEVNPMRPIGQTQNNTPEKTDGTSTLREDHQEPGSPHIATPNPQRVSNSATPVAQLLLPKSHSWGIVLPLGELEGKRSTRDRRSPAELEGGSASEGAARPVARFNSIPLTDTGHVEQHEGSSDPQIPESVFHLLVPGIILVLLTVGGLLFYKWKWRSHRDPQTLDSSVGRPEDSSLTQDEDRQVELPV
With B1 the ELK1-Luc reporter: concentration-response of MCSF on CSF1R activation in cells stably expressing CSF1R (EC50) [1] was 0.36 nM.

B2: parvalbumin (recombinant protein) (natural protein, UniProt P32848 1-110, looked up)
chain: MSMTDVLSAEDIKKAIGAFAAADSFDHKKFFQMVGLKKKNPDEVKKVFHILDKDKSGFIEEDELGSILKGFSSDARDLSAKETKTLLAAGDKDGDGKIGVEEFSTLVAES
notes: parvalbumin, recombinant; The only source printed for a recombinant parvalbumin is human parvalbumin 15333-H08E (Sino Biological), named for the PBMC experiments only; also called PVALB; rPVLAB; source: recombinant protein
In the case of B2, the “ELK1-Luc reporter: concentration-response of parvalbumin on CSF1R activation in the presence of MCSF (IC50)” value [2] is reported as 3.26 nM and the Kd [3] is reported as 3650 nM.
